What was measured:
[1] = biological target: double-phosphorylated JNK1 (phospho-JNK1) (human)
[2] = biological target: double-phosphorylated JNK1 (phospho-JNK1) (human); remark: listed apart in the source

Binder	Km of MKP5-CD for pJNK1 substrate, relative to that of MKP7-CD [1] [fold]	phosphatase activity for JNK1 dephosphorylation, relative to wild-type MKP7-CD (Fig. 4a) [2] [fold]
MKP5 catalytic domain (MKP5-CD, residues 320-467) (domain or fragment) AELTPILPFLFLGNEQDAQDLDTMQRLNIGYVINVTTHLPLYHYEKGLFNYKRLPATDSNKQNLRQYFEEAFEFIEEAHQCGKGLLIHCQAGVSRSATIVIAYLMKHTRMTMTDAYKFVKGKRPIISPNLNFMGQLLEFEEDLNNGVT	20	–
MKP7-CD (F285A) (domain or fragment) NIGPTRILPNLYLGCQRDVLNKELMQQNGIGYVLNASNTCPKPDFIPESHFLRVPVNDSFCEKILPWLDKSVDFIEKAKASNGCVLVHCLAGISRSATIAIAYIMKRMDMSLDEAYRFVKEKRPTISPNANFLGQLLDYEKKIKNQ	–	10

Reference: PMC4802042
